Assay results published in article PMC4943950, “T4 Phage Tail Adhesin Gp12 Counteracts LPS-Induced Inflammation In Vivo” (Frontiers in Microbiology, 2016).

Target: the molecule itself
Assay: SDS-PAGE of the non-heated sample (SDS-resistant oligomer); purified gp12 final preparation, not heated before SDS-PAGE, ambient temperature; trimer band at 172.5 kDa

B1: T4 phage short tail fiber protein (tail adhesin) gp12, recombinant, His-tagged (natural protein, bacteriophage T4, UniProt P10930 1-527, looked up)
chain: MSNNTYQHVSNESRYVKFDPTDTNFPPEITDVQAAIAAISPAGVNGVPDASSTTKGILFIPTEQEVIDGTNNTKAVTPATLATRLSYPNATETVYGLTRYSTNDEAIAGVNNESSITPAKFTVALNNAFETRVSTESSNGVIKISSLPQALAGADDTTAMTPLKTQQLAIKLIAQIAPSETTATESDQGVVQLATVAQVRQGTLREGYAISPYTFMNSSSTEEYKGVIKLGTQSEVNSNNASVAVTGATLNGRGSTTSMRGVVKLTTTAGSQSGGDASSALAWNADVIQQRGGQIIYGTLRIEDTFTIANGGANITGTVRMTGGYIQGNRIVTQNEIDRTIPVGAIMMWAADSLPSDAWRFCHGGTVSASDCPLYASRIGTRYGGNPSNPGLPDMRGLFVRGSGRGSHLTNPNVNGNDQFGKPRLGVGCTGGYVGEVQIQQMSYHKHAGGFGEHDDLGAFGNTRRSNFVGTRKGLDWDNRSYFTNDGYEIDPESQRNSKYTLNRPELIGNETRPWNISLNYIIKVKE
notes: No step that removes the His-Tag is described; also called phage adhesin
stoichiometry N: 3
